B1: recombinant wild-type fasciculin-2 (natural protein)
chain: TMCYSHTTTSRAILTNCGENSCYRKSRRHPPKMVLGRGCGCPPGDDNLEVKCCTSPDKCNY

Legend:
[1] = target: Torpedo californica acetylcholinesterase (Torpedo californica) (UniProt P04058); experiment: kinetics of approach to equilibrium by enzyme activity
[2] = target: Torpedo californica acetylcholinesterase (Torpedo californica) (UniProt P04058); experiment: titration of enzyme activity
[3] = target: T1, Torpedo californica acetylcholinesterase (Torpedo californica, UniProt P04058 22-564); experiment: kinetics of approach to equilibrium by enzyme activity
[4] = target: T1, Torpedo californica acetylcholinesterase; experiment: titration of enzyme activity

Molecule	Kd [1]	koff [1]	kon [1]	Kd [2]	Kd [3]	koff [3]	kon [3]	Kd [4]
fasciculin double mutant T8V/T9N (natural protein)	0.6 nM	0.0505 s⁻¹	8.5e+07 M⁻¹ s⁻¹	0.64 nM	–	–	–	–
fasciculin mutant H29R (natural protein)	0.03 nM	0.0127 s⁻¹	3.9e+08 M⁻¹ s⁻¹	0.052 nM	–	–	–	–
fasciculin mutant K32R (natural protein)	2.6 nM	0.09 s⁻¹	–	2.3 nM	–	–	–	–
fasciculin mutant R11K (natural protein)	0.63 nM	0.0293 s⁻¹	4.7e+07 M⁻¹ s⁻¹	0.53 nM	–	–	–	–
fasciculin mutant T8V (natural protein)	–	–	–	0.125 nM	–	–	–	–
fasciculin mutant T9N (natural protein)	–	–	–	2.8 nM	–	–	–	–
B1	–	–	–	–	0.37 nM	0.025 s⁻¹	6.8e+07 M⁻¹ s⁻¹	0.31 nM

— PMC2742391 (Protein Engineering, Design and Selection, 2009)
